For 2 substances, stoichiometry of inhibition (SI) and kon results are on record in publication doi:10.1101/2025.09.05.674453.

The target of experiment [1] is Thiol protease (Tpr) (Porphyromonas gingivalis) (UniProt P25806). The experiment in a line: titration of residual protease activity.
Experiment [2] addresses Lysine-specific gingipain (Kgp), purified (Porphyromonas gingivalis) (UniProt Q51817). Put plainly: titration of residual protease activity.
The target in experiment [3] is Thiol protease (Tpr) (Porphyromonas gingivalis) (UniProt P25806). The experiment in a line: progress curve analysis of protease inhibition.
Experiment [4] addresses Lysine-specific gingipain (Kgp), purified (Porphyromonas gingivalis) (UniProt Q51817). The experiment in a line: progress curve analysis of protease inhibition.
Experiment [5] addresses Arginine-specific gingipain RgpB (Porphyromonas gingivalis) (UniProt P95493). The experiment in a line: titration of residual protease activity.
UniProt P95493, sequence (P95493 25-736): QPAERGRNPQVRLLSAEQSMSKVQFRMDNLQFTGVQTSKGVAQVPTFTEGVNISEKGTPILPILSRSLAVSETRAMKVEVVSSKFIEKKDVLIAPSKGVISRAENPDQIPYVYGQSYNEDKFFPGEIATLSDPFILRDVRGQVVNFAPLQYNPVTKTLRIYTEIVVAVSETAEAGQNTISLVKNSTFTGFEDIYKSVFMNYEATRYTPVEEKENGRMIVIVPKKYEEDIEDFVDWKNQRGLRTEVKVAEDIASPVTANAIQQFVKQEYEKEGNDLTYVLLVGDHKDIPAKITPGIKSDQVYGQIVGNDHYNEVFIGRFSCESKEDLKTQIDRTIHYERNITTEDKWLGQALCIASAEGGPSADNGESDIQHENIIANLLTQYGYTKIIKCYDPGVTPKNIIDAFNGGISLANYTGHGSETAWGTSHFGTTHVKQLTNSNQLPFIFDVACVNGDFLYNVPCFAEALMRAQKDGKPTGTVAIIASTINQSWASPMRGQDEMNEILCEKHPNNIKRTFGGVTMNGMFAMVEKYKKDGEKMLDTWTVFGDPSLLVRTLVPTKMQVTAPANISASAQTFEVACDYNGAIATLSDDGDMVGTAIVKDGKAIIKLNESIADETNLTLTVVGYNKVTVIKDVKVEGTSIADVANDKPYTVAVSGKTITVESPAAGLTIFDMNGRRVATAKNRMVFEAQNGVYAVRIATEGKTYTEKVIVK
For experiment [6] the target is unchanged. The experiment in a line: progress curve analysis of protease inhibition.

In general, kon refers to a measure of how fast the partners come together.

UniProt Q51817, sequence (Q51817 25-1732): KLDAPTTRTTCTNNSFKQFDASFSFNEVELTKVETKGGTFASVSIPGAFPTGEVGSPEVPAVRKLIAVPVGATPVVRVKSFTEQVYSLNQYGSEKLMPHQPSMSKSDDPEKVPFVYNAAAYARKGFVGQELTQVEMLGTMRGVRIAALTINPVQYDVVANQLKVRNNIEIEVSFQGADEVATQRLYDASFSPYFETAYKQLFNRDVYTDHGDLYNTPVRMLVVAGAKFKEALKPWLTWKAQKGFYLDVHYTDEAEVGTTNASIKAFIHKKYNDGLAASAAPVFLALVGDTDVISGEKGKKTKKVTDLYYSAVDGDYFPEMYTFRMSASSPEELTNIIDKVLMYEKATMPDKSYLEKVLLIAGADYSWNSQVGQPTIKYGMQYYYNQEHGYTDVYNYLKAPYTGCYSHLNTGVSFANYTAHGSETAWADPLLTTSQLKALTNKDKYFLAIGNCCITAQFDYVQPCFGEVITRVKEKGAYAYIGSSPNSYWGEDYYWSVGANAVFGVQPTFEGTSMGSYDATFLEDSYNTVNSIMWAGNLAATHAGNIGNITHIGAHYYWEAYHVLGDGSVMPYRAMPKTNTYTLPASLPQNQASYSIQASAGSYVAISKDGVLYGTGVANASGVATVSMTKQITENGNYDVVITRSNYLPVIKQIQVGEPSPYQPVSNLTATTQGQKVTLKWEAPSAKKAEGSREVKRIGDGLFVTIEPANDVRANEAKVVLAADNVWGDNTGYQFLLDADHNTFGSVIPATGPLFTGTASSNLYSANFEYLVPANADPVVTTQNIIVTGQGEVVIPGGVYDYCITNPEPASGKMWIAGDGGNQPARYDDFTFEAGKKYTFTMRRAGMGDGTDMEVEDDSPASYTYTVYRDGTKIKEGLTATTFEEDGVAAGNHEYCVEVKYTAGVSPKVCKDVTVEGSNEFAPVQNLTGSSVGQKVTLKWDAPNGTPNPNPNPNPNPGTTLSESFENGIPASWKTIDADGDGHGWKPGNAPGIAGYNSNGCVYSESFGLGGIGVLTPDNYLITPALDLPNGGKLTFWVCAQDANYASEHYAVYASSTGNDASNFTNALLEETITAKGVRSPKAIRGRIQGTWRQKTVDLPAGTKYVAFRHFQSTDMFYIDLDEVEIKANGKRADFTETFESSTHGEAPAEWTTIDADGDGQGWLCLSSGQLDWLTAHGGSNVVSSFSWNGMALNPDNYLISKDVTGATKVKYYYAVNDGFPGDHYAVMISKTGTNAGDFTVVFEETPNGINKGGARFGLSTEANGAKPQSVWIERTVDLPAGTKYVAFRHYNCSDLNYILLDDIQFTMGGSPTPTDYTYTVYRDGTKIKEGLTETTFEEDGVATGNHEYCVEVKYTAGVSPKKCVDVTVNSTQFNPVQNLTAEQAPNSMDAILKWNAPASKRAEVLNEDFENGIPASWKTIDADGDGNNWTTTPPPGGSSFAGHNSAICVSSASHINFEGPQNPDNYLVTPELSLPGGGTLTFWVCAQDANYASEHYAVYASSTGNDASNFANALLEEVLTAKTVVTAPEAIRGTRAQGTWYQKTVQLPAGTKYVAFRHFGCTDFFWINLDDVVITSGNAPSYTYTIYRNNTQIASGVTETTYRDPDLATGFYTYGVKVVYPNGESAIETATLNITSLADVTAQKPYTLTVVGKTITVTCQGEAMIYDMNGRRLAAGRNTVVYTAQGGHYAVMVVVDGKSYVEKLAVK
UniProt P25806, sequence (P25806 whole entry): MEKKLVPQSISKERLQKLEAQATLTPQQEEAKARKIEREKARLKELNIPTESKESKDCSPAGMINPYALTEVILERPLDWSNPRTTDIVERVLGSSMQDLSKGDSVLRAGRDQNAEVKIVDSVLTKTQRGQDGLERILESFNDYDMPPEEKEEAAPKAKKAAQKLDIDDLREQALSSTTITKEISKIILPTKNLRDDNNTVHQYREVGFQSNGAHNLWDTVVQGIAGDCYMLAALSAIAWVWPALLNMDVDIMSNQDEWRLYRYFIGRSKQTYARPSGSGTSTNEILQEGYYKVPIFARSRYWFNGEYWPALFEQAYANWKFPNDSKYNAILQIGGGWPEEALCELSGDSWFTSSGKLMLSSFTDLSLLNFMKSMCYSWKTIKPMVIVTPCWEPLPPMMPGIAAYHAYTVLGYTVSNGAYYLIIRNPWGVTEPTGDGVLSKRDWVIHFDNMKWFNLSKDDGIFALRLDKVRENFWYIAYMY

With “Recombinant wild-type miropin (VKT-mir) (natural protein)”, the stoichiometry of inhibition (SI) in experiment [1] came to 9.3; in experiment [2] it was 1.9. Moreover, the results for the kon in experiment [3] and in experiment [4] were 2500 M⁻¹ s⁻¹ and 220000 M⁻¹ s⁻¹, respectively.
Take RVK-miropin (natural protein): the stoichiometry of inhibition (SI) in experiment [2] and in experiment [5] was 1.7 in each case. Besides, the kon worked out at 330000 M⁻¹ s⁻¹ in experiment [4] and 740000 M⁻¹ s⁻¹ in experiment [6].
